Results: paper PMC2889250
Where two headings read alike, the source gives them in different places.

Assays:
Test in all cases: SDS-PAGE
recombinant NaK channel [1] = target: recombinant NaK channel
recombinant NaK channel [2] = target: recombinant NaK channel; remark: listed apart in the source
[3] = target: semisynthetic NaK channel (residues 19-110)

In the case of “recombinant NaK channel (natural protein)”, the stoichiometry N (recombinant NaK channel [1]) was 4 and the stoichiometry N (recombinant NaK channel [2]) was 4.
Substance “semisynthetic NaK channel (residues 19-110) (natural protein)” has a stoichiometry N [3] of 4.
